This note sets out measurements from patent publication US20110212476A1.

Common to all, as to assay: cell-based or functional assay
Assay [1] has as its target Gαi1 R178M (human).
Assay [2] has as its target Gαi1 R178C/A326S (human).
For assay [3], the target named is Gαi1 wild type (full length human, His-tagged) (human).
Assay [4] has as its target Gαi1 R178C (human).
In assay [5] the target is Gαi1 A326S (human).
Assay [6] addresses Gαi1 R178M/A326S (human).

Chain of human His-tagged RGS4 (23-298) (P49798 other isoform, or with tags, fused parts or gaps limits assumed): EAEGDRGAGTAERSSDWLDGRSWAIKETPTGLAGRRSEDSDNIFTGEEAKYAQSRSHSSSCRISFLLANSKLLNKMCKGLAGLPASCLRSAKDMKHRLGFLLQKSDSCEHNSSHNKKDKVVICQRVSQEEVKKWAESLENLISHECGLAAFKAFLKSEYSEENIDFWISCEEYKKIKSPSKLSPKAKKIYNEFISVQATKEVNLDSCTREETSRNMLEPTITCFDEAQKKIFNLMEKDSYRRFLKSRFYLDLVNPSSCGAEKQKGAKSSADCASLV
Chain of Gαi1 R178M/A326S (human) (B2RSH2 2-354 R178M/A326S): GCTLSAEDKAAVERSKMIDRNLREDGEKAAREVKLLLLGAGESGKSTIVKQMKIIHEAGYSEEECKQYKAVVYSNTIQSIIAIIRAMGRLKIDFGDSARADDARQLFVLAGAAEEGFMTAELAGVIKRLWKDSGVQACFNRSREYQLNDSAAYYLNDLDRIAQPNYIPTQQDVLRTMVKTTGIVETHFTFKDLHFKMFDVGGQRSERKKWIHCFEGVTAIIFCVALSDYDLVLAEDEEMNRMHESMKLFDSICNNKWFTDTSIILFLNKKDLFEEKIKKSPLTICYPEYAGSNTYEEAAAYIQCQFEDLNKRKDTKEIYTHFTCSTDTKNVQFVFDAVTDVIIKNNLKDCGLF
Chain of Gαi1 A326S (human) (B2RSH2 2-354 A326S): as the sequence (B2RSH2 2-354 R178M/A326S) above, with M177R counted along it
Chain of Gαi1 R178M (human) (B2RSH2 2-354 R178M): as the sequence (B2RSH2 2-354 R178M/A326S) above, with S325A counted along it
Chain of Gαi1 wild type (full length human, His-tagged) (human) (B2RSH2 2-354): as the sequence (B2RSH2 2-354 R178M/A326S) above, with M177R, S325A counted along it
Chain of Gαi1 R178C/A326S (human) (B2RSH2 2-354 R178C/A326S): as the sequence (B2RSH2 2-354 R178M/A326S) above, with M177C counted along it
Chain of Gαi1 R178C (human) (B2RSH2 2-354 R178C): as the sequence (B2RSH2 2-354 R178M/A326S) above, with M177C, S325A counted along it

In the case of “human His-tagged RGS4 (23-298) (from UniProt P49798 23-298)”, the GAP Factor was 1.19 fold in assay [1]; 3.63 fold in assay [2]; 0.81 fold in assay [3]; 0.92 fold in assay [4]; 1.1 fold in assay [5]; 6.47 fold in assay [6]. Moreover, the GTPase rate +RGS4 (steady state, GDP immunodetection) in assay [1] was 0.007 min⁻¹; in assay [2] it was 0.069 min⁻¹; in assay [3], 0.013 min⁻¹; in assay [4], 0.00035 min⁻¹; in assay [5] it was 0.11 min⁻¹; in assay [6], 0.097 min⁻¹. Moreover, the maximum polarization shift resulting from RGS stimulation in assay [6] came out at 73 mP. In assay [6], this substance gave a stimulation of GTPase activity of 6.6 fold.
